Experimental data: patent US7087392B2, “Antiproliferative SgK reagents and methods” (The Regents of the University of California, priority 1999, dated 2006)

Key:
Sgk = assay: In vitro peptide kinase assay (Sgktide, [32P]ATP) of immunoprecipitated HA-Sgk; format: biochemical; settings: mutant forms of Sgk
Excerpt: Sgk is a component of the PI3 kinase cascade and is directly activated by PDK1 mediated phosphorylation of threonine 256 in the activation loop. […] To develop this kinase assay, lysates from human embryo kidney 293 cells transfected to express wild type hemagglutinin (HA)-tagged Sgk (HA-Sgk) were isolated and the Sgk immunoprecipitated with HA antibodies was used to screen a synthetic peptide library for identifying potential Sgk substrates. The immunoprecipitates were extensively washed, and incubated with the peptide in the presence of [^32P]ATP in kinase buffer (Park et al 1999). Sgk phosphorylated several peptides, and the best substrate for Sgk was KKRNRRLSVA (SEQ ID NO:01), which is named Sgktide. […] This substrate specificity is generally similar to, but not identical, with the substrate specificity for Akt, which is a well characterized down stream component of the PI 3 kinase pathway.
Cotransfection of PDK1 with Sgk caused a 6-fold activation of Sgk activity, whereas, the kinase-dead form of PDK1 had no effect. […] The Ser-78 in the amino terminal domain is a third phosphorylation site and expression of the S78G Sgk mutation ablates the presence of the slowest migrating form of phosphorylated Sgk in SDS polyacrylamide gels.

mammary tumor cells = assay: Transient cell foci growth assay of transfected mammary tumor cells; format: cell-based; settings: transfected expression vector, G418 selection
Excerpt: Functional evidence for a direct role of sgk in the glucocorticoid anti-proliferative pathway. In both the Con8 mammary epithelial tumor cells (from which Sgk was originally cloned) as well as human MCF-7 breast cancer cells (which were originally derived from a pleural effusion of a metastatic human breast adenocarcinoma) glucocorticoids induce a G1 block in cell cycle progression and strongly stimulate sgk transcript and protein production. […] To initially test whether Sgk has an anti-proliferative function and perhaps mediates the glucocorticoid growth inhibitory response, the full length rat or human wild type sgk cDNA was inserted downstream of the cytomegalovirus (CMV) promoter in an expression vector that also encodes the neomycin resistance gene. […] Transfection competent cells were selected in 0.5 mg/ml of the G418 neomycin derivative for two weeks.
Expression vectors encoding several point mutants or truncations of Sgk were transfected into the mammary tumor cells and cell growth monitored by the cell foci assay.
Transient transfection and rapid screen of the sgk expression vectors for the anti-proliferative response in rodent and human mammary tumor cells. A transient cell foci growth assay is employed to rapidly screen the various Sgk constructs to define the domains that mediate the anti-proliferative response in rat and human mammary tumor cells using our optimized conditions. The advantage of this assay is that many different mutant Sgk expression vectors can be simultaneously compared for their growth inhibitory effects. Also, this assay can be used to rapidly assess the proliferative effects of combinations of Sgk and its interacting proteins or substrates. Populations of human MCF-7 breast cancer cells or rat Con8 mammary tumor cells are transfected by the lipofectin transfection procedures and cultured in normally cytotoxic concentrations (750 μg/ml) of the G418 neomycin derivative to recover transfection competent cells. Approximately 5000 transfected cells are cultured as colonies on plastic, and after one to two weeks are fixed and stained in crystal violet/formalin to visualize the cell colonies. The effects on cell proliferation are quantitated by simply counting the resulting cell colonies or by scanning the total cell density on each plate. To provide a control for the fidelity of the cell foci assays, in each experiment, cells transfected with the control vectors (no Sgk sequences) are treated with or without 1 μM dexamethasone because the cells are growth suppressed by this synthetic glucocorticoid. […]

B1: K127M: Sgk with lysine 127 in the ATP binding domain substituted with methionine; kinase dead (protein, UniProt O00141 1-431, looked up, variant K127M)
Serine/threonine-protein …: MTVKTEAAKGTLTYSRMRGMVAILIAFMKQRRMGLNDFIQKIANNSYACKHPEVQSILKISQPQEPELMNANPSPPPSPSQQINLGPSSNPHAKPSDFHFLKVIGKGSFGKVLLARHKAEEVFYAVMVLQKKAILKKKEEKHIMSERNVLLKNVKHPFLVGLHFSFQTADKLYFVLDYINGGELFYHLQRERCFLEPRARFYAAEIASALGYLHSLNIVYRDLKPENILLDSQGHIVLTDFGLCKENIEHNSTTSTFCGTPEYLAPEVLHKQPYDRTVDWWCLGAVLYEMLYGLPPFYSRNTAEMYDNILNKPLQLKPNITNSARHLLEGLLQKDRTKRLGAKDDFMEIKSHVFFSLINWDDLINKKITPPFNPNVSGPNDLRHFDPEFTEEPVPNSIGKSPDSVLVTASVKEAAEAFLGFSYAPPTDSFL
kinase activity / activation of Sgk mutant (Sgk): kinase dead form of Sgk
reduction in number of cell foci compared to the vector control (mammary tumor cells): ~2.5 fold
